± gives the uncertainty stated by the source.
Experiment: protein stability index of a GFP-peptide fusion (yeast GPS) (PSI 1-4); higher = more stable; sorted into four equal gates, so the index is relative within each strain
In short: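 Plasmids isolated from each sorting gate were PCR-amplified and Illumina-sequenced, and barcodes assigned the reads to strains. The gates, four of equal size, were set by GFP/Cherry fluorescence ratio on mid-log cultures in leucine-free medium. These cultures were yeast carrying a pooled library of tiled 17-residue yeast protein peptides fused downstream of GFP on a plasmid that also expresses Cherry. The protein stability index is the sum of every gate's read frequency times its gate number.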

QKYNQIQKQIETIQADL [SMC2]
protein stability index (doa10∆): 2.68 ± 0.047
protein stability index (pdr5∆): 2.57 ± 0.042
protein stability index (san1∆): 2.6 ± 0.047
protein stability index (ubr1∆): 2.45 ± 0.031

DEQQREDNNDAVNSIMA [ECM29]
protein stability index (doa10∆): 3.16 ± 0.1
protein stability index (pdr5∆): 3.56 ± 0.11
protein stability index (san1∆): 3.07 ± 0.1
protein stability index (ubr1∆): 3.31 ± 0.074

QEMIDILETIFRGARKN [DIB1]
protein stability index (doa10∆): 2.83 ± 0.14
protein stability index (san1∆): 2.77 ± 0.17

NLMILNTKVPVDIVNQW [YML103C/NUP188]
protein stability index (doa10∆): 1.68 ± 0.071
protein stability index (pdr5∆): 2.12 ± 0.084
protein stability index (san1∆): 1.84 ± 0.13
protein stability index (ubr1∆): 2.08 ± 0.055

VPNSSDQAELPNNASSH [SNF2]
protein stability index (doa10∆): 2.26 ± 0.13
protein stability index (pdr5∆): 2.85 ± 0.21
protein stability index (ubr1∆): 2.74 ± 0.16

SSSANKLLQLFLTPMDS [YML103C/NUP188]
protein stability index (doa10∆): 1.81 ± 0.052
protein stability index (pdr5∆): 1.61 ± 0.059
protein stability index (san1∆): 1.64 ± 0.085
protein stability index (ubr1∆): 1.41 ± 0.042

YLKHNSIAEEIPIAIVL [RET1]
protein stability index (doa10∆): 2.65 ± 0.052
protein stability index (pdr5∆): 2.18 ± 0.047
protein stability index (san1∆): 1.73 ± 0.085
protein stability index (ubr1∆): 2.16 ± 0.05

EKKNDENSTSNSKPEKS [YLR335W/NUP2]
protein stability index (doa10∆): 3.24 ± 0.086
protein stability index (pdr5∆): 3.21 ± 0.1
protein stability index (san1∆): 3.28 ± 0.054
protein stability index (ubr1∆): 3.3 ± 0.056

TVHEMEEELKKLRDHEP [SMC4]
protein stability index (doa10∆): 3.54 ± 0.27
protein stability index (pdr5∆): 3.26 ± 0.22
protein stability index (ubr1∆): 3.62 ± 0.2

NGDKMPLKFKLGPLSYQ [YJR042W/NUP85]
protein stability index (doa10∆): 2.94 ± 0.12
protein stability index (pdr5∆): 3.09 ± 0.096
protein stability index (san1∆): 3.02 ± 0.096
protein stability index (ubr1∆): 3.27 ± 0.12

CTQMTDEGLLNMVSLRG [GRR1]
protein stability index (doa10∆): 2.78 ± 0.1
protein stability index (pdr5∆): 2.66 ± 0.083
protein stability index (san1∆): 2.22 ± 0.088
protein stability index (ubr1∆): 2.02 ± 0.054

LDELQWKSPEWIQVFGL [MED6]
protein stability index (doa10∆): 2.24 ± 0.078
protein stability index (pdr5∆): 2.41 ± 0.053
protein stability index (san1∆): 2.62 ± 0.071
protein stability index (ubr1∆): 2.56 ± 0.066

QLKDMQTIEMITQIVEK [SRB8]
protein stability index (doa10∆): 2.87 ± 0.069
protein stability index (pdr5∆): 3.19 ± 0.075
protein stability index (san1∆): 2.94 ± 0.059
protein stability index (ubr1∆): 2.85 ± 0.056

ELAGGNASLTIEDEDEP [SMC1]
protein stability index (doa10∆): 3.03 ± 0.08
protein stability index (pdr5∆): 3.09 ± 0.14
protein stability index (san1∆): 3 ± 0.059
protein stability index (ubr1∆): 3.16 ± 0.074

VTSSFFYRGNYTDFENT [FAS1]
protein stability index (doa10∆): 2.05 ± 0.058
protein stability index (pdr5∆): 2.4 ± 0.049
protein stability index (san1∆): 2.43 ± 0.079
protein stability index (ubr1∆): 2.57 ± 0.056

EGLELLGWIHTQTEELK [PRP8]
protein stability index (doa10∆): 2.94 ± 0.1
protein stability index (pdr5∆): 2.65 ± 0.091
protein stability index (san1∆): 3.16 ± 0.053
protein stability index (ubr1∆): 3.29 ± 0.099

LSIWIKNYPEYFLKVTF [IRR1]
protein stability index (doa10∆): 1.88 ± 0.056
protein stability index (pdr5∆): 1.77 ± 0.037
protein stability index (san1∆): 2.2 ± 0.076
protein stability index (ubr1∆): 1.8 ± 0.047

MTAMRLMLKKLKNSIMS [YML031W/NDC1]
protein stability index (doa10∆): 1.6 ± 0.085
protein stability index (pdr5∆): 1.99 ± 0.087
protein stability index (san1∆): 2.16 ± 0.12
protein stability index (ubr1∆): 2.28 ± 0.059

AIGTKRYDSNSGGEREI [RPT2]
protein stability index (doa10∆): 3.28 ± 0.22
protein stability index (pdr5∆): 3.54 ± 0.11
protein stability index (san1∆): 3.39 ± 0.12
protein stability index (ubr1∆): 3.5 ± 0.13

PFFSSNTSSLQSFQNPF [YIL149C/MLP2]
protein stability index (doa10∆): 2.93 ± 0.058
protein stability index (pdr5∆): 2.25 ± 0.055
protein stability index (san1∆): 2.69 ± 0.05
protein stability index (ubr1∆): 2.81 ± 0.033

YVGEVIKIVSDKKVLVK [RPT6]
protein stability index (doa10∆): 3.03 ± 0.058
protein stability index (pdr5∆): 2.9 ± 0.055
protein stability index (san1∆): 3.08 ± 0.067
protein stability index (ubr1∆): 2.94 ± 0.073

DPKFVNSLLAKLKDSKK [YML103C/NUP188]
protein stability index (doa10∆): 2.54 ± 0.2
protein stability index (pdr5∆): 2.86 ± 0.1
protein stability index (san1∆): 1.99 ± 0.15
protein stability index (ubr1∆): 2.54 ± 0.082

DTDSKPSSQSQNDTPMF [YLR018C/POM34]
protein stability index (doa10∆): 2.89 ± 0.044
protein stability index (pdr5∆): 3.17 ± 0.048
protein stability index (san1∆): 3 ± 0.039
protein stability index (ubr1∆): 2.95 ± 0.034

AHTGATPIAGRFTPGSF [RPS0A]
protein stability index (doa10∆): 3.15 ± 0.17
protein stability index (pdr5∆): 2.91 ± 0.08
protein stability index (san1∆): 2.52 ± 0.17
protein stability index (ubr1∆): 2.81 ± 0.12

GLFDSFTNGVLAVTNLL [YML031W/NDC1]
protein stability index (doa10∆): 2.64 ± 0.14
protein stability index (pdr5∆): 2.95 ± 0.22
protein stability index (san1∆): 2.75 ± 0.11

DAKKARFWSFMKTQRFV [SIR4]
protein stability index (doa10∆): 2.6 ± 0.096
protein stability index (pdr5∆): 2.88 ± 0.069
protein stability index (san1∆): 2.67 ± 0.069
protein stability index (ubr1∆): 2.75 ± 0.066

VPPILIILPLDNATLTE [SSN2]
protein stability index (doa10∆): 2.97 ± 0.1
protein stability index (pdr5∆): 2.71 ± 0.11
protein stability index (san1∆): 2.58 ± 0.16
protein stability index (ubr1∆): 2.51 ± 0.087

IDEAHRIKNEQSALSQI [ISW2]
protein stability index (doa10∆): 2.6 ± 0.1
protein stability index (pdr5∆): 2.17 ± 0.091
protein stability index (san1∆): 1.67 ± 0.089
protein stability index (ubr1∆): 3 ± 0.069

VIQDEVLAHRIGLVPLK [RPC40]
protein stability index (doa10∆): 2.94 ± 0.27

TKTNVDNNSKAEASFTF [YLR335W/NUP2]
protein stability index (doa10∆): 3.05 ± 0.063
protein stability index (pdr5∆): 3.24 ± 0.067
protein stability index (san1∆): 3.07 ± 0.045
protein stability index (ubr1∆): 3.13 ± 0.046

GHRADVGGQFSKVQFDA [REC8]
protein stability index (doa10∆): 3.25 ± 0.085
protein stability index (pdr5∆): 3.45 ± 0.11
protein stability index (san1∆): 3.28 ± 0.059
protein stability index (ubr1∆): 3.23 ± 0.056

ITYTPVRHGRAGATTSR [RPS15]
protein stability index (doa10∆): 2.28 ± 0.11
protein stability index (pdr5∆): 2.24 ± 0.081
protein stability index (san1∆): 2.58 ± 0.088
protein stability index (ubr1∆): 2.92 ± 0.099

LGSGSNVDVCVMEIGKD [PUP1]
protein stability index (doa10∆): 3.59 ± 0.089
protein stability index (pdr5∆): 3.53 ± 0.087
protein stability index (san1∆): 3.4 ± 0.06
protein stability index (ubr1∆): 3.51 ± 0.091

TSLLNKVLKSGSGVDSS [RRP42]
protein stability index (doa10∆): 2.87 ± 0.12
protein stability index (pdr5∆): 2.88 ± 0.077
protein stability index (san1∆): 2.6 ± 0.13
protein stability index (ubr1∆): 3.21 ± 0.12

NNTTTTSTKPSFSFGAP [YOR098C/NUP1]
protein stability index (doa10∆): 3.26 ± 0.11
protein stability index (pdr5∆): 3.38 ± 0.1
protein stability index (san1∆): 3.04 ± 0.056
protein stability index (ubr1∆): 3.01 ± 0.076

YDTQLKVSPEELPLVIT [ARP7]
protein stability index (doa10∆): 2.6 ± 0.047
protein stability index (pdr5∆): 2.77 ± 0.062
protein stability index (san1∆): 2.59 ± 0.041
protein stability index (ubr1∆): 2.62 ± 0.042

QLSQDEHSQVEQTCVKL [SRP72]
protein stability index (doa10∆): 3.17 ± 0.16
protein stability index (pdr5∆): 3.24 ± 0.064
protein stability index (san1∆): 3.1 ± 0.094
protein stability index (ubr1∆): 3.25 ± 0.084

SYRLLPQINILQPIKGE [RPC40]
protein stability index (doa10∆): 2.04 ± 0.094
protein stability index (pdr5∆): 2.1 ± 0.087
protein stability index (san1∆): 1.74 ± 0.067
protein stability index (ubr1∆): 2.03 ± 0.064

DQTNHIESDSILNLLNI [ECM29]
protein stability index (doa10∆): 3.02 ± 0.064
protein stability index (pdr5∆): 3.04 ± 0.072
protein stability index (san1∆): 2.99 ± 0.077
protein stability index (ubr1∆): 3.03 ± 0.059

KIKDVQQQIESNEEQRN [SMC3]
protein stability index (doa10∆): 3.22 ± 0.091
protein stability index (pdr5∆): 3.17 ± 0.082
protein stability index (san1∆): 3.18 ± 0.076
protein stability index (ubr1∆): 2.85 ± 0.11

QFEWHQNSLLTNTHPNF [SNF2]
protein stability index (doa10∆): 2.87 ± 0.063
protein stability index (pdr5∆): 2.88 ± 0.08
protein stability index (san1∆): 3.09 ± 0.066
protein stability index (ubr1∆): 2.99 ± 0.047

DELDQEILNLSTQELQT [RPT5]
protein stability index (doa10∆): 3.21 ± 0.084
protein stability index (pdr5∆): 3.15 ± 0.09
protein stability index (san1∆): 3.14 ± 0.06
protein stability index (ubr1∆): 3.13 ± 0.078

KLDASKKQQAALTNELN [YIL149C/MLP2]
protein stability index (doa10∆): 2.79 ± 0.069
protein stability index (pdr5∆): 2.99 ± 0.075
protein stability index (san1∆): 2.68 ± 0.08
protein stability index (ubr1∆): 2.17 ± 0.062

FTIQSFVSSLSNTSTLK [BRR2]
protein stability index (doa10∆): 1.83 ± 0.05
protein stability index (pdr5∆): 1.97 ± 0.041
protein stability index (san1∆): 2.01 ± 0.055
protein stability index (ubr1∆): 2.24 ± 0.034

FLWPFKLSNPSGGWGVP [RPL7A]
protein stability index (doa10∆): 3.16 ± 0.077
protein stability index (pdr5∆): 2.85 ± 0.075
protein stability index (san1∆): 3.16 ± 0.1
protein stability index (ubr1∆): 3.36 ± 0.14

FPTDLEIFQLFTNPSVD [SWI1]
protein stability index (doa10∆): 2.59 ± 0.069
protein stability index (pdr5∆): 2.88 ± 0.078
protein stability index (san1∆): 2.67 ± 0.07
protein stability index (ubr1∆): 2.35 ± 0.056

MAKRVADAQIQRETYDS [YLR335W/NUP2]
protein stability index (doa10∆): 2.21 ± 0.22
protein stability index (pdr5∆): 2.7 ± 0.14
protein stability index (san1∆): 2.08 ± 0.12
protein stability index (ubr1∆): 2.21 ± 0.1

LRKIDMLQKKLVEVEDE [SRB7]
protein stability index (doa10∆): 3.06 ± 0.13
protein stability index (pdr5∆): 3.45 ± 0.11
protein stability index (san1∆): 3.42 ± 0.18
protein stability index (ubr1∆): 3.36 ± 0.1

PTVSLTINLDRFMKGRR [RPC82]
protein stability index (doa10∆): 2.38 ± 0.083
protein stability index (pdr5∆): 2.48 ± 0.06
protein stability index (san1∆): 2.62 ± 0.062
protein stability index (ubr1∆): 2.63 ± 0.081

FRRDFLLREYDILSQIL [YJL039C/NUP192]
protein stability index (doa10∆): 1.81 ± 0.12
protein stability index (pdr5∆): 2.32 ± 0.1
protein stability index (san1∆): 2.08 ± 0.11
protein stability index (ubr1∆): 2.27 ± 0.06

GKEVEVLMETKNTQSPQ [SNU114]
protein stability index (doa10∆): 3.19 ± 0.22
protein stability index (pdr5∆): 3.6 ± 0.095
protein stability index (ubr1∆): 3.44 ± 0.11

RQNRNQEIFDANVQRLK [RPL13A]
protein stability index (doa10∆): 3.15 ± 0.078
protein stability index (pdr5∆): 3.19 ± 0.085
protein stability index (san1∆): 3.19 ± 0.055
protein stability index (ubr1∆): 3.4 ± 0.055

YNTSILEFRWLTSSKSV [SIN4]
protein stability index (doa10∆): 1.79 ± 0.065
protein stability index (pdr5∆): 1.91 ± 0.081
protein stability index (san1∆): 1.96 ± 0.079
protein stability index (ubr1∆): 2.48 ± 0.1
